Where two headings read alike, the source gives them in different places.
System: R2 protein (R2Bm reverse transcriptase/endonuclease) (Bombyx mori)
Sequence (chain, as listed by the source): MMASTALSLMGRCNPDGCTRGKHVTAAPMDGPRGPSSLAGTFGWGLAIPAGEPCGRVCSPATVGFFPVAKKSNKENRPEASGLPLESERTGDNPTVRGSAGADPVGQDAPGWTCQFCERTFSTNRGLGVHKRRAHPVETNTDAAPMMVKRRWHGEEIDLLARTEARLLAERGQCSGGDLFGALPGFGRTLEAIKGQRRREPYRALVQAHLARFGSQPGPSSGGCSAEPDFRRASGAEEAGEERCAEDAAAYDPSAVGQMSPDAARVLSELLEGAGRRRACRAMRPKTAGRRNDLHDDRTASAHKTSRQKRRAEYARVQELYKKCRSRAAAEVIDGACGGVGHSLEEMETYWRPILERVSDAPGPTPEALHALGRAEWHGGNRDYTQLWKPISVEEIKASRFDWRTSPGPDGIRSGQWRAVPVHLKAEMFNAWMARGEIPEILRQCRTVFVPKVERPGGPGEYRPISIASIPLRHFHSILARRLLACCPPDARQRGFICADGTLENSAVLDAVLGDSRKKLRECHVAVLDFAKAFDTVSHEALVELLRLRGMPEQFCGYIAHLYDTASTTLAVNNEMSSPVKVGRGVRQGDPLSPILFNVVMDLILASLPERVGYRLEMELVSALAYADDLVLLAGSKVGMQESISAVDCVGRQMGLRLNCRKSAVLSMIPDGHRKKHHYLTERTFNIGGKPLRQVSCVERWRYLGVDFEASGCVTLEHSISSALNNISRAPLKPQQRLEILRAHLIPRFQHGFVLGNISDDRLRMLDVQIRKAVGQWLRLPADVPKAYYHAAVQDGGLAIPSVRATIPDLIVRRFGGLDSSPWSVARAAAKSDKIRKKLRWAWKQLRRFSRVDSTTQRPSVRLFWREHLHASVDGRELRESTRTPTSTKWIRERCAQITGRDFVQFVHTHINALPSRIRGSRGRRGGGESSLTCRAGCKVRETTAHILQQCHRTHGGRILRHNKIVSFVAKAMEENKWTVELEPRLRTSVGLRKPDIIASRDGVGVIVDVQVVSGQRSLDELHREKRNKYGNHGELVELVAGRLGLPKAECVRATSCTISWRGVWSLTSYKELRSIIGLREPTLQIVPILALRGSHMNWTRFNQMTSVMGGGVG

Substance: 334 nt vector RNA
- binding signal (RNA-primed reverse transcription relative to 254 nt R2 RNA, template jumps 3.9%): 0.44

Substance: 254 nt R2 3' UTR RNA
- binding signal (RNA-primed reverse transcription without target DNA, template jumps 12.9%): 1

Substance: 183 nt vector RNA
- binding signal (RNA-primed reverse transcription relative to 254 nt R2 RNA, template jumps 15.1%): 0.7
